“Also recorded” adds a separate entry of the source.
Assays:
peptide pulsed T2 cells [1] = assay: IFN-gamma ELISPOT: CTL line induced with Foxp3-9-252-WT against T2 cells pulsed with substituted peptide; assay type: cell-based, human; details: FIG. 7A, listed as Foxp3-9-252-9V
Description: IFN-gamma ELISPOT assay was performed using CTL line induced with Foxp3-9-252-WT peptide as responder cells and T2 cells pulsed Foxp3-9-252-WT or Foxp3-9-252-9V peptide as stimulator cells, respectively. T2 cells without peptide pulse were prepared as control. […] IFN-gamma ELISA assay was performed using CTL line induced with Foxp3-9-252-WT peptide as responder cells (1×10^5 cells/well) and Foxp3-9-252-WT (-solid circle-), Foxp3-9-252-9V (-open circle-) or HIV-A02 (-solid triangle-) peptide pulsed T2 cells as stimulator cells (1×10^4 cells/well). Peptide pulse of stimulator cells was conducted at 37 degree Celsius for 2 hours in each kind of peptide and peptide concentration.
(§1) To examine the specific CTL activity, IFN-gamma ELISPOT assay and IFN-gamma ELISA were performed. Briefly, peptide-pulsed A24-LCL, T2 cell (1×10^4/well) or the cells endogenously expressing Foxp3 and HLA molecule was prepared as a stimulator cells. Cultured CTL lines in 48 wells were used as a responder cells. IFN-gamma ELISPOT assay and IFN-gamma ELISA were performed under manufacture procedure.
And then the present inventers examined whether peptide-pulsed stimulator cells using these substitutions were recognized by CTLs generated with Foxp3-9-252-WT peptide.

peptide pulsed T2 cells [2] = assay: CTL line induced with Foxp3-9-252-9V against peptide-pulsed T2 cells; assay type: cell-based, human; details: FIG. 7D, listed as Foxp3-9-252-9V
Description: (§2) In FIG. 7C CTLs could be induced by stimulation with Foxp3-9-252 substitutions targeted HLA-A2 molecule. CTLs for all substituted peptides targeted HLA-A2 molecule were generated in the way as described in “Materials and Methods”. […] CTL line induced with Foxp3-9-252-9V peptide was used as responder cells. T2 cells incubated with Foxp3-9-252-9V (-solid circle-) or Foxp3-9-252-WT (-open circle-) peptide and without any peptide (-open square-) were used as stimulator cells in this assay (1×10^4 cells/well).
(§3) On the other hand, the present inventers attempted the induction of CTLs using all substitutions restricted HLA-A*0201 including Foxp3-9-252-9V peptide. […] After CTL line induced by stimulation with Foxp3-9-252-9V was established by in vitro expansion, the CTL activity was determined by using stimulator cells pulsed with Foxp3-9-252-WT or Foxp3-9-252-9V peptide.

HLA-A2 molecule = target: T1, HLA-A2 molecule (Homo sapiens, UniProt P04439, D140Y/D185E/D98H/E176V/E277Q/G131W/G231S/I119V/I121R/I166T/I218V/L300P/L318F/N151K/N90K/P208A/P217A/Q86G/Q94H/R138H/R169H/T345S); assay: CTL induction with Foxp3-9-252 substitutions restricted HLA-A*0201; assay type: cell-based; details: FIG. 7C; for IFN-gamma production compared with the control: positive wells
T1 construct: peripheral blood mononuclear cells (PBMCs) isolated from normal volunteer (HLA-A*2402 and/or HLA-A*0201); endogenous in cells; host or cells: monocyte-derived dendritic cells of HLA-A*0201 volunteers; T2 cells as stimulators in the read-out
Description: as §2
Monocyte-derived dendritic cells (DCs) were used as antigen-presenting cells (APCs) to induce CTL responses against peptides presented on HLA. DCs were generated in vitro as described elsewhere (Horiguchi S. et al. Cancer Res. 59:2950-6). Specifically, peripheral blood mononuclear cells (PBMCs) isolated from normal volunteer (HLA-A*2402 and/or HLA-A*0201) with Ficoll-Plaque (Pharmacia) solution were separated by adherence to plastic tissue culture dish (Becton Dickinson) so as to enrich them for the monocyte fraction. The monocyte-enriched population was cultured in the presence of 1000 U/ml of GM-CSF (R&D System) and 1000 U/ml of IL-4 (R&D System) in AIM-V medium (Invitrogen) containing 2% heat-inactivated autologous serum (AS). After 7 days in the culture, the cytokine-generated DCs were pulsed with 20 mcg/ml of the synthesized peptides in the presence of 3 mcg/ml of beta2-microglobulin for 4 hrs at 20 degrees C. in AIM-V medium. These peptide-pulsed DCs were then inactivated with mitomycin C (MMC) (30 mcg/ml for 30 mins) and mixed at a 1:20 ratio with autologous CD8+ T cells, obtained by positive selection with CD8 Positive Isolation Kit (Dynal). These cultures were set up in 48-well plates (Corning); each well contained 1.5×10^4 peptide-pulsed DCs, 3×10^5 CD8+ T cells and 10 ng/ml of IL-7 (R&D System) in 0.5 ml of AIM-V/2% AS. Three days later, these cultures were supplemented with IL-2 (CHIRON) to a final concentration of 20 IU/ml. On day 7 and 14, the T cells were further restimulated with the peptide-pulsed autologous DCs. The DCs were prepared each time through the same procedure described above. CTL activity was tested against peptide-pulsed A24LCL cells or T2 cells after the 3rd round of peptide stimulation on day 21.
as §1, §3

Sequence: KLSAMQAHV (peptide vaccine) [SEQ ID NO 95]
- IFN-gamma production of Foxp3-9-252-WT induced CTLs against peptide pulsed T2 cells (peptide pulsed T2 cells [1]): produced IFN-gamma; also recorded: recognize the cells presenting Foxp3-9-252-9V peptide on HLA-A2 molecule
- recognition of Foxp3-9-252-WT pulsed stimulator cells by CTLs induced with substituted peptide (peptide pulsed T2 cells [2]): recognized stimulator cells pulsed Foxp3-9-252-WT peptide as equal to that pulsed Foxp3-9-252-9V peptide; also recorded: recognize stimulator cells coated with Foxp3-9-252-WT peptide
- CTL induction by stimulation with substituted peptide (HLA-A2 molecule): CTLs were induced
- IFN-gamma production compared with the control (HLA-A2 molecule; listed as Foxp3-9-252-9V): showed IFN-gamma production
- IFN-gamma production compared with the control (HLA-A2 molecule; listed as Foxp3-A02-9-252-9V): peptide-dependent IFN-gamma production
